Results from IntAct's records for PubMed 26418745.

B1: ALK tyrosine kinase receptor (Homo sapiens), Q9UM73 (parent)
chain: MGAIGLLWLLPLLLSTAAVGSGMGTGQRAGSPAAGPPLQPREPLSYSRLQRKSLAVDFVVPSLFRVYARDLLLPPSSSELKAGRPEARGSLALDCAPLLRLLGPAPGVSWTAGSPAPAEARTLSRVLKGGSVRKLRRAKQLVLELGEEAILEGCVGPPGEAAVGLLQFNLSELFSWWIRQGEGRLRIRLMPEKKASEVGREGRLSAAIRASQPRLLFQIFGTGHSSLESPTNMPSPSPDYFTWNLTWIMKDSFPFLSHRSRYGLECSFDFPCELEYSPPLHDLRNQSWSWRRIPSEEASQMDLLDGPGAERSKEMPRGSFLLLNTSADSKHTILSPWMRSSSEHCTLAVSVHRHLQPSGRYIAQLLPHNEAAREILLMPTPGKHGWTVLQGRIGRPDNPFRVALEYISSGNRSLSAVDFFALKNCSEGTSPGSKMALQSSFTCWNGTVLQLGQACDFHQDCAQGEDESQMCRKLPVGFYCNFEDGFCGWTQGTLSPHTPQWQVRTLKDARFQDHQDHALLLSTTDVPASESATVTSATFPAPIKSSPCELRMSWLIRGVLRGNVSLVLVENKTGKEQGRMVWHVAAYEGLSLWQWMVLPLLDVSDRFWLQMVAWWGQGSRAIVAFDNISISLDCYLTISGEDKILQNTAPKSRNLFERNPNKELKPGENSPRQTPIFDPTVHWLFTTCGASGPHGPTQAQCNNAYQNSNLSVEVGSEGPLKGIQIWKVPATDTYSISGYGAAGGKGGKNTMMRSHGVSVLGIFNLEKDDMLYILVGQQGEDACPSTNQLIQKVCIGENNVIEEEIRVNRSVHEWAGGGGGGGGATYVFKMKDGVPVPLIIAAGGGGRAYGAKTDTFHPERLENNSSVLGLNGNSGAAGGGGGWNDNTSLLWAGKSLQEGATGGHSCPQAMKKWGWETRGGFGGGGGGCSSGGGGGGYIGGNAASNNDPEMDGEDGVSFISPLGILYTPALKVMEGHGEVNIKHYLNCSHCEVDECHMDPESHKVICFCDHGTVLAEDGVSCIVSPTPEPHLPLSLILSVVTSALVAALVLAFSGIMIVYRRKHQELQAMQMELQSPEYKLSKLRTSTIMTDYNPNYCFAGKTSSISDLKEVPRKNITLIRGLGHGAFGEVYEGQVSGMPNDPSPLQVAVKTLPEVCSEQDELDFLMEALIISKFNHQNIVRCIGVSLQSLPRFILLELMAGGDLKSFLRETRPRPSQPSSLAMLDLLHVARDIACGCQYLEENHFIHRDIAARNCLLTCPGPGRVAKIGDFGMARDIYRASYYRKGGCAMLPVKWMPPEAFMEGIFTSKTDTWSFGVLLWEIFSLGYMPYPSKSNQEVLEFVTSGGRMDPPKNCPGPVYRIMTQCWQHQPEDRPNFAIILERIEYCTQDPDVINTALPIEYGPLVEEEEKVPVRPKDPEGVPPLLVSQQAKREEERSPAAPPPLPTTSSGKAAKKPTAAEISVRVPRGPAVEGGHVNMAFSQSNPPSELHKVHGSRNKPTSLWNPTYGSWFTEKPTKKNNPIAKKEPHDRGNLGLEGSCTVPPNVATGRLPGASLLLEPSSLTANMKEVPLFRLRHFPCGNVNYGYQQQGLPLEAATAPGAGHYEDTILKSKNSMNQPGP
partner: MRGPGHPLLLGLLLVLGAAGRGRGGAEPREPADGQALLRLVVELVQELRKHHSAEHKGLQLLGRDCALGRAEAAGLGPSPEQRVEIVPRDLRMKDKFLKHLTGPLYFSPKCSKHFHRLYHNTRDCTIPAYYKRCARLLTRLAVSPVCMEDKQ

Variants of: B1
Settings: with alkl2_human ALKAL2, Q6UX46

Row | Variant | effect of a mutation on the interaction
1 | G740D | disrupting interaction strength
2 | G823D | disrupting interaction strength
3 | G934D | disrupting interaction strength
4 | G893E | disrupting interaction strength
